# From article PMC10871247 (bioRxiv, 2024)
# Numbering of substitutions follows the chain as printed. Numbers in names are those of the source.
# B1: 3×Ala-MxEnc (natural protein, Myxococcus xanthus)
# chain: MPDFLGHAENPLREEEWARLNETVIQVARRSLVGRRILDIYGPLGAGVQTVPYDEFQGVSPGAVDIVGEQETAMVFTDARKFKTIPIIYKDFLLHWRDIEAARTHNMPLDVSAAAGAAALCAQQEDELIFYGDARLGYEGLMTANGRLTVPLGDWTSPGGGFQAIVEATRKLNEQGHFGPYAVVLSPRLYSQLHRIYEAAAVLEIETIRQLASDGVYQSNRLRGESGVVVSTGRENMDLAVSMDMVAAYLGASRMNHPFRVLEALLLRIKHPDAICTLEGAGATERR
# B2: 3×His-MxEnc (K199H/T200H/G201H triple point mutant of the M. xanthus encapsulin) (natural protein, Myxococcus xanthus)
# chain: B1 chain with A199H, A200H, A201H
# B3: 3×Asp-MxEnc (natural protein, Myxococcus xanthus)
# chain: B1 chain with A199D, A200D, A201D
# Assays:
# native gel or EMSA = target: the molecule itself; test: native gel or EMSA
# native MS = target: the molecule itself; test: native MS
# SEC = target: the molecule itself; test: SEC
protein,measurement,setting,value
B1,binding result,native gel or EMSA,binds
B2,stoichiometry N,native MS,60
B3,binding result,SEC,binds
